Measured values from a protein production outcome set (Wang et al. 2014).

Experiment: label from the status in PepcDB records

With “GTAYWKNPDQFTAFNTGLHALLREKSYNFFLLGEPRADIYGDNPIGGEASQGMERLPFNTINKENVGISNYGDMYKIINQINQMIAKTTETTILTEATQNYYLGEAYGMRAYLYFHLLRSWGDVVLYLDYTEGQNLDLSNITKGVSPATEVMEQIKKDIQASENAFGSDYSFKLGRHFWSAAATQMLKGEAYLWSGRQMNGGNSDYTIAKNAFENVKKADVGLVTSSFKDIFSFENKKNKEMIFTIHNGKDEYEMWGGYYRMRLIPAQDKMVKIYCDENGNSFVGTPDAQLNGLTQLQVRREFYFKGFRNNDTRWTTSLKAVYKKDAQGVVSYFGPITYKFQGTMLEGGSTRSFLDDFPIYRYADCLLQLAMAKVLLGEDPTEEINAVRERAYGSKYFNEHKAEIAYPNDNDPEFYTDNKWMKPDNAGALEAILKERLREFMFEGKRWYDIRLLGWDYVHQYSSAEQSRLLWPIDAGTLTNNSALKQTPGYE” the protein production was “not failed”.
With “GTPVSDAEEIKVKYGCALSELVSKDDTVNVPSVGGRPSRSLQRQTLSEVIEPRYSELMGLVNQTIDSVQAKLREEGIKHH” the protein production was “failed”.
In the case of “GTQAGVPAWSTIKVPISIAALRANPGNDVLMRQAITVSDNDAARALWDSLGSPREKVGAVLAQGGDPQTQVNDQPGMRTFC”, the protein production is reported as “failed”.
For “GVLDDIRFGVRRTLNARIASQAQWYALGAEQLARTRIAQLMDREPNKTTLEGGWNGRVISFPIEQGRMEAKLTDATGCFNLNSVVEANQGEPFRRRELGVRQFTTLLSLVGVSNGPELAENLADWMDSNDVGRAEAEDPGYAQLAQPYRTAGGPLAEVSELRAIRGFTPSVYAALRPYVCALPTTDLSPINVNTLPPERALLLTALTEGRIGRETAARVLSGRPVNGWPDAQAFWGQQALVATPPGDVVRDQIKFRTRFFALDSQIVFADMPVFMTALFETPSASKVILA”, the protein production was “failed”.
With “GVSVSPDETMLAFGEDVLSRRVYNIYFKDIESGAMITDVLENTEGRIVWGNDNRHVFYIAKDLQTLLGNRVYRHELGTPQSRDVLVYEEQDDAYYISLGKSLDESQIVLFHESTTTSEVSVLDANDPLSLFKPVLAREEGHEYSVSKLGDSYYVLTNWQATNFRLMKVAIKDAADKSKWQEVVAHNPNARLEDELVLKDYLIIQTRENGLTRIKVMPFNGQKPFELSFDEPAYVLGLDVNA” the protein production was “failed”.
With “HALAERDRPLPTHLVLSGRMPPHTGYSPLLGAMDDNQLWQHVCSESLLPLPTDASCSFARHALGKLKADLALNAQLTYRFIRPLPVPLYVLNGQDDPLLELHRLDEWQRYTSTSFHSEYVPGGHFFFNINFQLLYLPLLTALD” the protein production was “failed”.
For “HALGAPVLRVEGLSQAGHFRNVSFEVRAGEVLGITGLLGSGVKELVECLFGLEQPDAGSVTIDGEVRRFANPGRAVQGRVALVPEDRRAHGVATDMSVRDNITIASLERYMTRGFVSRARENEAVDGFIRELSIKTPHRDQLVRNLSGGNQQKVALAKWLSCQSRVYVLDEPTVAVDVGAKVEIYTLLNRLAAEGAAILFLSSDLLEIAGFCDRALVVYRGTLNGEFAGETLDSDLLLAAASGARAQRKEA”, the protein production was “failed”.
With “HARKSLTVLVVGESARAENFGILGYGRNTTPNLNKENGLVAFTDVYSCGTETAVSVPCMFSNMGRKNYNATKARNQEGLLDVLKHAGIEVAWRDNQSGCKGTCDRVTFQDVSNLTDPLLCNSHECRDEILLQNLQGFIDSLDKDTVLVLHQMGSHGPEYYKRYPKEFEKFTPVCESNALNNCSRDSIVNAYDNTLLYTDHVLSTLIDLLRSNQAKVDTAMVYLSDHGESLGEYNLFLHGTPYVLAPDQQKHVPMLIWLSDTYQKSFAVTPDCLAKQRNAPLSQDNLFHSMLGLLKVDTKVY” the protein production was “failed”.
With “HEETECPLRLAVCQHCDLELSILKLKEHEDYCGARTELCGNCGRNVLVKDLKTHPEVCGREG” the protein production was “not failed”.
In the case of “HIQKGIAGEQKACAFLEQQGYKIIEKNLRIGKGEIDLIAVHNNCMCFIEVKYRKHNRYGFPEEFVTQKKLLKIQETAEAYIYTVNWQGRIRFDVVAITGEELPVHL”, the protein production is reported as “failed”.
In the case of “HKPWRAEYAKSSRSSCKTCKSVINKENFRLGKLVQSTHFDGIMPMWNHASCILKKTKQIKSVDDVEGIESLRWEDQQKIRKYVESGAGSNTSTSTGTSTSS”, the protein production is reported as “not failed”.
With “HLDASLQEVAEHAFGDYLGGLVALDPNTGGVLALVSKPGFDPNLFVDGIDPETWKSLNESPERPMVNRALRGIYPPGSTIKPLMALAGLELGLREPDDSIDDPGFFRLPNSQHRFRDWKPGGHGIVDLRRSISQSCDIYYYRLAVDMGIDRMHDYLTQFGLGQKTGIDLQGESSGLLPSRAWKQRRWKQPWYPGETVIAGIGQGYHLTTPLQLATMTAMLANGGKRIQPRLVDAVRDPHTRAWQTQAPVMLGEVAIDPENLAVVRQGMMDVTRPGGTAAASAAGAAYGIAGKTGTAQVVGIKQGARYDATRLAREHRDHALFVAYAPAENPVIAVAVMVENGGSGSGTAAPIARAVFDYYLTGKRPGTMKLETDDAAD” the protein production was “failed”.
For “HPNVTFIIGENGTGKSTLLEGIAIALGFNAEGGTKNFRFSTNDSHSSLHEYLRISKSFNTPSDGFFLRAESFYNVASYIDEIDADLEARGNPVIDSYGGISLHEQSHGESFFSLFMNRFSGQGLYILDEPEAALSPMRQLSMLIRMHELAEQGSQFVIATHSPILMAYPESTIYSLTQEG”, the protein production was “failed”.
For “HRAKIRMEALPEDYERVPGTDMTPEQAYNVSNLDPALQKALDDLSPDFRVAVVLCDVVGMSYDEIADTLGVKMGTVRSRIHRGRSQLRAHLENQATSDEGAQLLLATGR”, the protein production was “failed”.
In the case of “HSHSDKHPVTWQPSKDGDRLIGRILLNKRLKDGSVPRDSGAMLGLKVVGGKMTESGRLCAFITKVKKGSLADTVGHLRPGDEVLEWNGRLLQGATFEEVYNIILESKPEPQVELVVSR”, the protein production is reported as “not failed”.
With “HVSDLDWLMSGLVQRVPHTTSAVLLSCDGLVKSVHGLDPDSADHMAALASGLYSLGRSAGIRFGDGGDVRQVVVELDSTLLFVSTAGSGTCLAVLAGREADAAVLGYEMAMLVKSVRPYLMTAPRQ” the protein production was “not failed”.
In the case of “HYSPFRSQPVDCVLWVKQELVAPNDYNPNNVAPPEKRLLQTSLEADGFTQPVVVIQQRPQAYTIVDGFHRHELACSKAALKKTLKGYLPVTCLTSEAASRDGLMAATIRHNRARGRHQ”, the protein production is reported as “failed”.
With “IDTVAPDMRIHGFLNAQEFTLYLDTSGEALFKRGLRQTQGEAPLRENLAAGILALTGWQPGTPLLDPMCGSGTLLLEAAQIACRIAPGSGRQFAFEQLKLFDARSWKKLKQTATERQHERTFQSIYGSDLYGSALAHTRNNLAAAGLAECVTLKQANVLEISAPAETGILVSNPPYGVRIGDHQMLAEFYPRLGDVLKQRFSGWRAFLLTADPLLAKSIRLTPSRRTPLFNGALECRLLEYRLVAGSMRREKQPSSESSTNQPIT” the protein production was “failed”.
In the case of “IEVKQLEFPAFKVEIQKWLHFHINWQNDMDYIEKTNHTFYGAYVDNDLKGSICINEQGKISFIFIDKEYRNRGIGSKLLQVARDELNLESLLISFPNNSLLEGFLKKTGFEKNSLAQYEMYVLL”, the protein production is reported as “failed”.
In the case of “IHNSRWIMTPEVKEDCKMRLFCLPFAGGGALAYRSWCRYMPPEIELCAVQLPGRENRIKDEKFYDINLLIDELVLQILPYLDKPFALYGHSMGGLISFELARRIRKVKGLTPKILFFSGSKAPQLYDHTKDISHLPDELFLKAIKSFNGMPDMFWQDRELIEFKLPTLRADFSVLEGYNYYNEEPLECPISALCGENDKIISKKDMEALALQTKNQFKLRMFDGDHFFINTCRSKVLKSIIEDLN”, the protein production is reported as “not failed”.
For “IIGNAEAICLPELGITHLEARIDTGAQTSSLHVDNIDCFEKDGQSYVAFDLHPDVYHLEQVVRCTAKLKANRKVKSSNGTFEHRCVITTMLRLGDQEWPIDITLTNREKMTYMMLLGRQGMADKVLVDPSQSH”, the protein production was “failed”.
For “IKHKQLIEQVMIYIEKHLAENITLQDIADELYISRNYLGQIFKKVVGESFKNYVTRLRMEKAKKMIQEGNFLIYEVSEKVGYVNPAYFTTMFKKYTGYTPRDLIQK”, the protein production was “failed”.
With “ILHRDADFLLRALQPDDFVRTSRYENANREHLAPWEPLRDPGYFSVDNARARTLLQVASMDEGEALLLLLLDPDDGEVLGRCSYTNIVRGVFQACHLGFSLAAAAQGRGLMARALRVANRYCFEQLGLHRIMASHLPRNARSERLLESLGFEKEGYARAYLKIAGVWEDHVLR” the protein production was “failed”.
For “ISLAVLAVSIIFLGVTVIQNKKKIDPALKELSSVTQAMQKQIEGLKTETELLTQKQKKIQQDVQIKKYTLQQTAAEVKEVPQAVKEVWQA”, the protein production was “not failed”.
With “ISMIGERTNSNGSKAFREAMLSGDWEKCVDIAKQQTRDGAHMLDLCVDYVGRDGTADMATLAALLATSSTLPIMIDSTEPEVIRTGLEHLGGRSIVNSVNFEDGDGPESRYQRIMKLVKQHGAAVVALTIDEEGQARTAEHKVRIAKRLIDDITGSYGLDIKDIVVDCLTFPISTGQEETRRDGIETIEAIRELKKLYPEIHTTLGLSNISFGLNPAARQVLNSVFLNECIEAGLDSAIAHSSKILPMNRIDDRQREVALDMVYDRRTEDYDPLQEFMQL” the protein production was “failed”.
For “ITARRRGELRRDALLKMGDQLRSLTTIQDMTGIASEIVGRALGAVRAGFGRVDPGEESVIIENDWSAAGYASLAGWHSLSDHPSFETANATKQPVVVADVAAAPPDNLSSQAKDDPGIGSLAVIPIENHDGSTALFFVHVAEPRDWSDDDLAFLRNVGDRLAAGVGRLDAEALQHTLNLELSHRMKNTLAMVMAIARQTLRSIP”, the protein production was “failed”.
With “ITIRDDILFQSGSAELTAGKREIAKEIGELFAQGKGTMEGIVSGHTDNVPISTSIYSSNWELSVARAVNFMEAIIQENSEVNPGEFSARGYGEFRPVAKNDIAANREKNRRVEIMVRPINRDTLDEDE” the protein production was “failed”.
With “ITVADQISHWSAGRIKNRTRIPECIHSSAATTLAGPHTMEGESVKLSSQTLIQAGDDEKNQRTITVNPAHMGKAFKVMNELRSKQLLCDVMIVAEDVEIEAHRVVLAACSPYFCAMFTGDMSESKAKKIEIKDVDGQTLSKLIDYIYTAEIEVTEENVQVLLPAASLLQLMDVRQNCCDFLQSQLHPTNCLGIRAFADVHTCTDLLQQANAYAEQHFPEVMLGEEFLSLSLDQVCSLISSDKLTVSSEEKVFEAVISWINYEKETRLEHMAKLMEHVRLPLLPRDYLVQTVEEEALIKNNNTCKDFLIEAMKYHLLPLDQRLLIKNPRTKPRTPVSLPKVMIVVGGQAPKAIRSVECYDFEEDRWDQIAELPSRRCRAGVVFMAGHVYAVGGFNGSLRVRTVDVYDGVKDQWTSIASMQERRSTLGAAVLNDLLYAVGGFDGSTGLASVEAYSYKTNEWFFVAPMNTRRSSVGVGVVEGKLYAVGGYDGASRQCLSTVEQYNPATNEWIYVADMSTRRSGAGVGVLSGQLYATGGHDGPLVRKSVEVYDPGTNTWKQVADMNMCRRNAGVCAVNGLLYVVGGDDGSCNLASVEYYNPVTDKWTLLPTNMSTGRSYAGVAVIHKSL” the protein production was “not failed”.
In the case of “IVRDSQRHKQLPVDRRKSQMEEVQDELIHRLTIGRSAAQKKFHVPRQNVPVINITYDSTPEDVKTWLQSKGFNPVTVNSLGVLNGAQLFSLNKDELRTVCPEGARVYSQITVQKAALEDSSGSSELQEIMRRRQEKISAAASDSGVESFDEGSSH”, the protein production is reported as “failed”.
In the case of “KASTKLHVGNISPTCTNQELRAKFEEYGPVIECDIVKDYAFVHMERAEDAVEAIRGLDNTEFQGKRMHVQLSTSRLRTA”, the protein production is reported as “not failed”.
With “KERILSSERLAKIMMSELGDKRQEHLIAIYLDTQNRVIKKQVIFIGSVRRSVAEPREILHYACKSMATSLIIVHNHPSGSTYPSENDLRFTEKIKRSCDDLGIVFLDHIIVGKKEYYSFREETDLV” the protein production was “not failed”.
